Measurements from the Human Domainome abundance scans (Beltran et al. 2025).
± gives the uncertainty stated by the source.

B1: Segment polarity protein dishevelled homolog DVL-3, residues 2 to 81; numbered along this chain, Q92997 (parent)
chain: GETKIIYHLDGQETPYLVKLPLPAERVTLADFKGVLQRPSYKFFFKSMDDDFGVVKEEISDDNAKLPCFNGRVVSWLVSA

Variants of: B1
Test: abundance fitness (aPCA) (normalised: wild type 0, dead -1); higher = more abundant; growth selection in yeast, the domain comes from the species named
Details: Homo sapiens

Variant | abundance fitness
GETKIIYHLDGQETPYLVKLPLPAERVTLADFKGVLARPSYKFFFKSMDDDFGVVKEEISDDNAKLPCFNGRVVSWLVSA | -0.1 ± 0.051
GETKIIYHLDGQETPYLVKLPLPAERVTLADYKGVLQRPSYKFFFKSMDDDFGVVKEEISDDNAKLPCFNGRVVSWLVSA | -0.544 ± 0.18
GETKIIYHLDGQETPYLVKLPLPAERVTLADVKGVLQRPSYKFFFKSMDDDFGVVKEEISDDNAKLPCFNGRVVSWLVSA | -0.819 ± 0.1
GETKIIYHLDGQETPYLVKLPLPAERVTLADWKGVLQRPSYKFFFKSMDDDFGVVKEEISDDNAKLPCFNGRVVSWLVSA | -0.61 ± 0.1
GETKIIYHLDGQETPYLVKLPLPAERVTLADFKGVKQRPSYKFFFKSMDDDFGVVKEEISDDNAKLPCFNGRVVSWLVSA | -0.725 ± 0.17
GETKIIYHLDGQETPYLVKLPLPAERVTLADFKGVNQRPSYKFFFKSMDDDFGVVKEEISDDNAKLPCFNGRVVSWLVSA | -0.522 ± 0.26
GETKIIYHLDGQETPYLVKLPLPAERVTLADFKGVFQRPSYKFFFKSMDDDFGVVKEEISDDNAKLPCFNGRVVSWLVSA | 0.097 ± 0.1
GETKIIYHLDGQETPYLVKLPLPAERVTLADFKGVAQRPSYKFFFKSMDDDFGVVKEEISDDNAKLPCFNGRVVSWLVSA | -0.785 ± 0.12
GETKIIYHLDGQETPYLVKLPLPAERVTLADFKGVDQRPSYKFFFKSMDDDFGVVKEEISDDNAKLPCFNGRVVSWLVSA | -0.37 ± 0.14
GETKIIYHLDGQETPYLVKLPLPAERVTLADFKGVPQRPSYKFFFKSMDDDFGVVKEEISDDNAKLPCFNGRVVSWLVSA | -0.244 ± 0.12
GETKIIYHLDGQETPYLVKLPLPAERVTLADFKGVSQRPSYKFFFKSMDDDFGVVKEEISDDNAKLPCFNGRVVSWLVSA | -0.629 ± 0.11
GETKIIYHLDGQETPYLVKLPLPAERVTLADFKGVTQRPSYKFFFKSMDDDFGVVKEEISDDNAKLPCFNGRVVSWLVSA | -0.824 ± 0.18
GETKIIYHLDGQETPYLVKLPLPAERVTLADFKGVVQRPSYKFFFKSMDDDFGVVKEEISDDNAKLPCFNGRVVSWLVSA | -0.187 ± 0.062
GETKIIYHLDGQETPYLVKLPLPAERVTLADFKGVHQRPSYKFFFKSMDDDFGVVKEEISDDNAKLPCFNGRVVSWLVSA | -0.988 ± 0.47
GETKIIYHLDGQETPYLVKLPLPAERVTLADFKGVQQRPSYKFFFKSMDDDFGVVKEEISDDNAKLPCFNGRVVSWLVSA | -0.668 ± 0.22
GETKIIYHLDGQETPYLVKLPLPAERVTLADFKGVCQRPSYKFFFKSMDDDFGVVKEEISDDNAKLPCFNGRVVSWLVSA | -0.563 ± 0.23
GETKIIYHLDGQETPYLVKLPLPAERVTLADFKGVEQRPSYKFFFKSMDDDFGVVKEEISDDNAKLPCFNGRVVSWLVSA | -0.728 ± 0.14

Variant | abundance fitness
GETKIIYHLDGQETPYLVKLPLPAERVTLADFKGVRQRPSYKFFFKSMDDDFGVVKEEISDDNAKLPCFNGRVVSWLVSA | -0.528 ± 0.067
GETKIIYHLDGQETPYLVKLPLPAERVTLADFKGVMQRPSYKFFFKSMDDDFGVVKEEISDDNAKLPCFNGRVVSWLVSA | -0.465 ± 0.12
GETKIIYHLDGQETPYLVKLPLPAERVTLADFKGVGQRPSYKFFFKSMDDDFGVVKEEISDDNAKLPCFNGRVVSWLVSA | -0.993 ± 0.11
GETKIIYHLDGQETPYLVKLPLPAERVTLADFKPVLQRPSYKFFFKSMDDDFGVVKEEISDDNAKLPCFNGRVVSWLVSA | -1.03 ± 0.21
GETKIIYHLDGQETPYLVKLPLPAERVTLADFKIVLQRPSYKFFFKSMDDDFGVVKEEISDDNAKLPCFNGRVVSWLVSA | -0.519 ± 0.24
GETKIIYHLDGQETPYLVKLPLPAERVTLADFKWVLQRPSYKFFFKSMDDDFGVVKEEISDDNAKLPCFNGRVVSWLVSA | -0.649 ± 0.11
GETKIIYHLDGQETPYLVKLPLPAERVTLADFKMVLQRPSYKFFFKSMDDDFGVVKEEISDDNAKLPCFNGRVVSWLVSA | 0.042 ± 0.072
GETKIIYHLDGQETPYLVKLPLPAERVTLADFKRVLQRPSYKFFFKSMDDDFGVVKEEISDDNAKLPCFNGRVVSWLVSA | 0.156 ± 0.043
GETKIIYHLDGQETPYLVKLPLPAERVTLADFKNVLQRPSYKFFFKSMDDDFGVVKEEISDDNAKLPCFNGRVVSWLVSA | 0.291 ± 0.092
GETKIIYHLDGQETPYLVKLPLPAERVTLADFKHVLQRPSYKFFFKSMDDDFGVVKEEISDDNAKLPCFNGRVVSWLVSA | -0.388 ± 0.16
GETKIIYHLDGQETPYLVKLPLPAERVTLADFKAVLQRPSYKFFFKSMDDDFGVVKEEISDDNAKLPCFNGRVVSWLVSA | 0.174 ± 0.053
GETKIIYHLDGQETPYLVKLPLPAERVTLADFKVVLQRPSYKFFFKSMDDDFGVVKEEISDDNAKLPCFNGRVVSWLVSA | -0.371 ± 0.066
GETKIIYHLDGQETPYLVKLPLPAERVTLADFKQVLQRPSYKFFFKSMDDDFGVVKEEISDDNAKLPCFNGRVVSWLVSA | 0.166 ± 0.076
GETKIIYHLDGQETPYLVKLPLPAERVTLADFKTVLQRPSYKFFFKSMDDDFGVVKEEISDDNAKLPCFNGRVVSWLVSA | -0.016 ± 0.078
GETKIIYHLDGQETPYLVKLPLPAERVTLADFKCVLQRPSYKFFFKSMDDDFGVVKEEISDDNAKLPCFNGRVVSWLVSA | -0.213 ± 0.078
GETKIIYHLDGQETPYLVKLPLPAERVTLADFKLVLQRPSYKFFFKSMDDDFGVVKEEISDDNAKLPCFNGRVVSWLVSA | -0.119 ± 0.058
GETKIIYHLDGQETPYLVKLPLPAERVTLADFKYVLQRPSYKFFFKSMDDDFGVVKEEISDDNAKLPCFNGRVVSWLVSA | -0.388 ± 0.14
